Measured values published in patent EP3048116A1 (International-Drug-Development-Biotech, dated 2016).

B1: Hz033-Mut7 (antibody, human IgG1, kappa)
heavy: EVQLQQSGAEVVKPGASVKLSCKASGFNIKDTFIHWVKQAPGQGLEWIGRIDPANGNTKYDPKFQGKATITTDTSSNTAYMELSSLRSEDTAVYYCVRGLYTYYFDYWGQGTLVTVSSASTKGPSVFPLAPSSKSTSGGTAALGCLVKDYFPEPVTVSWNSGALTSGVHTFPAVLQSSGLYSLSSVVTVPSSSLGTQTYICNVNHKPSNTKVDKKVEPKSCDKTHTCPPCPAPELLGGPSVFLFPPKPKDTLMISRTPEVTCVVVDVSHEDPEVKFNWYVDGVEVHNAKTKPREEQYNSTYRVVSVLTVLHQDWLNGKEYKCKVSNAALPAPIAKTISKAKGQPREPQVYTLPPSRDELTKNQVSLTCLVKGFYPSDIAVEWESNGQPENNYKTTPLVLDSDGSFFLYSKLTVDKSRWQQGNVFSCSVMHEALHNHYTQKSLSLSPGK
light: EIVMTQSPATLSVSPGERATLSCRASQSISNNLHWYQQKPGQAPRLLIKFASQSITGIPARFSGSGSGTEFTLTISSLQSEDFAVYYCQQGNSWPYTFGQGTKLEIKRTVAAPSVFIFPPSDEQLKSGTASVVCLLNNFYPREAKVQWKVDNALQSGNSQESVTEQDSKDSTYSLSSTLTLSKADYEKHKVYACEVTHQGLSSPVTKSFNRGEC
notes: also called Hz033 Mut7 (K326A E333A P396L)
B2: Hz033-Mut11 (antibody, human IgG1, kappa)
heavy: EVQLQQSGAEVVKPGASVKLSCKASGFNIKDTFIHWVKQAPGQGLEWIGRIDPANGNTKYDPKFQGKATITTDTSSNTAYMELSSLRSEDTAVYYCVRGLYTYYFDYWGQGTLVTVSSASTKGPSVFPLAPSSKSTSGGTAALGCLVKDYFPEPVTVSWNSGALTSGVHTFPAVLQSSGLYSLSSVVTVPSSSLGTQTYICNVNHKPSNTKVDKKVEPKSCDKTHTCPPCPAPELLGGPSVFLLPPKPKDTLMISRTPEVTCVVVDVSHEDPEVKFNWYVDGVEVHNAKTKPPEEQYNSTLRVVSLLTVLHQDWLNGKEYKCKVSNAALPAPIAKTISKAKGQPREPQVYTLPPSRDELTKNQVSLTCLVKGFYPSDIAVEWESNGQPENNYKTTPLVLDSDGSFFLYSKLTVDKSRWQQGNVFSCSVMHEALHNHYTQKSLSLSPGK
light: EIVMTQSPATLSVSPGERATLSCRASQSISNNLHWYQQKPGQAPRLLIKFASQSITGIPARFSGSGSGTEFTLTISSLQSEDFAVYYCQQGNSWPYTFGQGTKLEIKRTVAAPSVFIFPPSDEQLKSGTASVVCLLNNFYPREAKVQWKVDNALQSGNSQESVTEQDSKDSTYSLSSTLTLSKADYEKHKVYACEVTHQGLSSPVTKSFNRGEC
notes: also called Hz033 Mut11 (F243L R292P Y300L V305L K326A E333A P396L)
B3: Hz033-Mut8 (antibody, human IgG1, kappa)
heavy: EVQLQQSGAEVVKPGASVKLSCKASGFNIKDTFIHWVKQAPGQGLEWIGRIDPANGNTKYDPKFQGKATITTDTSSNTAYMELSSLRSEDTAVYYCVRGLYTYYFDYWGQGTLVTVSSASTKGPSVFPLAPSSKSTSGGTAALGCLVKDYFPEPVTVSWNSGALTSGVHTFPAVLQSSGLYSLSSVVTVPSSSLGTQTYICNVNHKPSNTKVDKKVEPKSCDKTHTCPPCPAPELLGGPSVFLFPPKPKDTLMISRTPEVTCVVVDVSHEDPEVKFNWYVDGVEVHNAKTKPREEQYNSTLRVVSVLTVLHQDWLNGKEYKCKVSNAALPAPIAKTISKAKGQPREPQVYTLPPSRDELTKNQVSLTCLVKGFYPSDIAVEWESNGQPENNYKTTPLVLDSDGSFFLYSKLTVDKSRWQQGNVFSCSVMHEALHNHYTQKSLSLSPGK
light: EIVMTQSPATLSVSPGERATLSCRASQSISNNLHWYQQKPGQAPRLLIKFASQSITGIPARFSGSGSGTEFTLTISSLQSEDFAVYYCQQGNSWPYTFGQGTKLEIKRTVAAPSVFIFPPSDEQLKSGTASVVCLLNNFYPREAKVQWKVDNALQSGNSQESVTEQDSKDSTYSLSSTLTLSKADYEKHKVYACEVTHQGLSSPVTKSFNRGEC
notes: also called Hz033 Mut8 (Y300L K326A E333A P396L)

Target: T1, Purified human sDR5 (human, UniProt O14763 56-182, limits assumed)
T1 construct: Analyte in the Biacore assay; only called 'purified human sDR5'
Assay: SPR (Biacore), MAb captured on immobilised GAH, sDR5 injected at 40 nM to 2.5 nM

Row | Binder | Kd [nM]
1 | B1 | 0.426
2 | B2 | 0.464
3 | B3 | 0.4
